Measurements published in PMC10259393, “The structural basis of the multi-step allosteric activation of Aurora B kinase” (eLife, 2023).
Non-standard residues stand in square brackets, D forms with d. pS = N[C@@H](COP(=O)(O)O)C(=O)O

Assays:
[1] = target: IN-box (C-terminal part of INCENP) IN-box, 790-856; test: mass photometry at 10 nM complex; conditions: reference: [Aurora B/IN-box]all-P, as purified; sites T248,S849,S850
[2] = target: T1, Aurora B (59-361 aa) from X. laevis, dephosphorylated, of the [Aurora B/IN-box]^IN-ΔC construct (X. laevis, UniProt Q6DE08 59-361); test: co-purification; purified complex after ligation with the synthetic peptide: Superdex S200 16/60, then Ni column by the 6xHis of the ligated IN-box, eluted with imidazole; conditions: both partners purified
T1 construct: Aurora B kinase, Xenopus laevis, residues 59-361; Thr248 not phosphorylated; also called Aurora B of [Aurora B/IN-box]^IN-P; not shown: 6xHis, N-terminal, cleaved; GB1 domain of streptococcal protein G, N-terminal, cleaved

[3] = target: T2, Aurora B (59-361 aa) from X. laevis, phosphorylated at Thr248, of the [Aurora B/IN-box]^IN-ΔC construct (X. laevis, UniProt Q6DE08 59-361, phosphothreonine at 248); test: as above; conditions: both partners purified
T2 construct: Aurora B kinase, Xenopus laevis, residues 59-361; also called Aurora B of [Aurora B/IN-box]^loop-P; not shown: 6xHis, N-terminal, cleaved; GB1 domain of streptococcal protein G, N-terminal, cleaved

Aurora B 60-361 [Aurora B/IN-box]no-P, λ-phosphatase treated
other: complex molecular weight [1]: same; reference ~44

B1: Semisynthetic IN-box (790-858, Phe845Cys) phosphorylated at Ser849 and Ser850 with C-terminal 6xHis, as in [Aurora B/IN-box]^IN-P (domain or fragment, X. laevis)
chain: DESQPRKPIPAWASGNLLTQAIRQQYYKPIDVDRMYGTIDSPKLEELFNKSKPRYCKRT[pS][pS]AVWHSPPL-{H2N-H2N-H2N-H2N-H2N-H2N}
notes: INCENP, Xenopus laevis, IN-box residues 790-844; synthetic peptide, IN-box residues 845-858 of X. laevis INCENP with Cys in place of Phe845 (scar of the ligation), both serines of the TSS motif phosphorylated; also called IN-box of [Aurora B/IN-box]^IN-P; IN-box^Phe845Cys; source: IN-box^ΔC (E. coli, purified, C-terminal thioester) ligated with a synthetic phosphopeptide; purified (Superdex S200, …)
binding result [2]: binds

B2: Semisynthetic IN-box (790-858, Phe845Cys) with unphosphorylated TSS motif and C-terminal 6xHis, as in [Aurora B/IN-box]^loop-P (domain or fragment, X. laevis)
chain: DESQPRKPIPAWASGNLLTQAIRQQYYKPIDVDRMYGTIDSPKLEELFNKSKPRYCKRTSSAVWHSPPL
notes: INCENP, Xenopus laevis, IN-box residues 790-844; synthetic peptide, IN-box residues 845-858 of X. laevis INCENP with Cys in place of Phe845 (scar of the ligation); also called IN-box of [Aurora B/IN-box]^loop-P; IN-box^Phe845Cys; source: IN-box^ΔC (E. coli, purified, C-terminal thioester) ligated with a synthetic peptide; purified (Superdex S200, Ni column); not shown: 6xHis, C-terminal, kept
binding result [3]: binds
